Assay results taken from publication PMC6954729, “Type I fatty acid synthase trapped in the octanoyl‐bound state” (Protein Science : A Publication of the Protein Society, 2020).

Target: the molecule itself
Experiment: crystal structure; crystals grown in 0.2 M potassium-sodium tartrate, 25% (w/v) PEG 3350 at 20°C, soaked with octanoyl-CoA for up to 2 min; 2.7 Å; four chains (A-D) in the asymmetric unit

B1: murine KS-MAT didomain (condensing part of murine Type I fatty acid synthase), octanoyl-bound (domain or fragment)
chain: EEVVIAGMSGKLPESENLQEFWANLIGGVDMVTDDDRRWKAGLYGLPKRSGKLKDLSKFDASFFGVHPKQAHTMDPQLRLLLEVSYEAIVDGGINPASLRGTNTGVWVGVSGSEASEALSRDPETLLGYSMVGCQRAMMANRLSFFFDFKGPSIALDTACSSSLLALQNAYQAIRSGECPAALVGGINLLLKPNTSVQFMKLGMLSPDGTCRSFDDSGSGYCRSEAVVAVLLTKKSLARRVYATILNAGTNTDGSKEQGVTFPSGEVQEQLICSLYQPAGLAPESLEYIEAHGTGTKVGDPQELNGITRSLCAFRQAPLLIGSTKSNMGHPEPASGLAALTKVLLSLEHGVWAPNLHFHNPNPEIPALLDGRLQVVDRPLPVRGGNVGINSFGFGGSNVHVILQPNTRQAPAPTAHAALPHLLHASGRTLEAVQDLLEQGRQHSQDLAFVSMLNDIAATPTAAMPFRGYTVLGVEGRVQEVQQVSTNKRPLWFICSGMGTQWRGMGLSLMRLDSFRESILRSDEAVKPLGVKVSDLLLSTDERTFDDIVHAFVSLTAIQIALIDLLTSVGLKPDGIIGHSLGEVACGYADGCLSQREAVLAAYWRGQCIKDAHLPPGSMAAVGLSWEECKQRCPAGVVPACHNSEDTVTISGPQAAVNEFVEQLKQEGVFAKEVRTGGLAFHSYFMEGIAPTLLQALKKVIREPRPRSARWLSTSIPEAQWQSSLARTSSAEYNVNNLVSPVLFQEALWHIPEHAVVLEIAPHALLQAVLKRGVKSSCTIIPLMKRDHKDNLEFFLTNLGKVHLTGINVNPNALFPPVEFPAPRGTPLISPHIKWDHSQTWDVPVAEDFPN
modifications: octanoyl covalently bound to C161 (KS, all four chains of the asymmetric unit); octanoyl covalently bound to S581 (MAT, chain D only)
notes: Type I fatty acid synthase (FAS), murine; condensing part with KS, linker domain (LD) and MAT; residues 1-407 and 824-852 (KS) and 488-806 (MAT) are named in superpositions; Wild type; also called murine FAS KS-MAT didomain; Wildtype soaked with octanoyl-CoA; source: E. coli BL21 Gold (DE3), purified (Ni-NTA, Strep-Tactin, SEC)
binding result: binds
